According to publication PMC2959088:

biological target: human cathepsin B (human); experiment: enzyme inhibition assay (residual activity on the fluorogenic substrate Z-Phe-Arg-MCA); cathepsin B or L (0.3 nM) incubated 5 min at 37°C with varied inhibitor in 100 mM sodium acetate pH 5.5, 2.5 mM DTT; substrate 0.01 mM; triplicate; Ki(app) by non linear regression (GraFit), Ki by Morrison's procedure

Oryzacystatin-1, sequence (P09229 39-140): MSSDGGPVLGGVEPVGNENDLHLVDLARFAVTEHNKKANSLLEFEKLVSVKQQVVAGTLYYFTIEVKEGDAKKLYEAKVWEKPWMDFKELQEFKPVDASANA

Row | Ki | Substance
1 | 78.5 nM | Oryzacystatin-1 (from UniProt P09229 39-140) (natural protein)
2 | 87.6 nM | Canecystatin-1 (natural protein)

biological target: human cathepsin L (human); experiment: as above

Row | Ki | Substance
3 | 11.7 nM | Reverse Mutant 2 (Q97L) (designed binder)
4 | 12.5 nM | Reverse Mutant 3 (T30I, Q97L) (designed binder)
5 | 1.93 nM | Reverse Mutant 1 (T30I) (designed binder)
6 | 0.1 nM | Canecystatin-1 (natural protein)
